Test results reported in the supplement of paper PMC10126150.
± gives the standard deviation of the averaged measurements.

Test system: ATP
Test: switch fluorescence ratio, 500 uM ATP over buffer (Cy3 cluster intensity, sum of 5 cycles each) (fold (ratio)); higher = stronger signal-on switching upon ATP binding; sequences stand for … in TCGTCGGCAGCGTCAGATGTGTATAAGAGACAGTTTTTTTTTTTTTTTTTTTTTTTTT…TC
Conditions: aptamer strand: ATP DNA aptamer (quencher-CACCTGGGGGAGTATTGCGGAGGAAGG + anchor), 100 nM annealed; ATP concentration: 500 uM
How it was run: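 Clusters carrying Cy3-labelled switching strands on a modified Illumina MiSeq flow-cell were annealed to 100 nM quencher-labelled ATP aptamer and imaged in selection buffer. They were imaged again after 15 min with 500 uM ATP at 22 °C, over five buffer/ATP cycles with NaOH stripping and re-annealing in between. For each cluster, the fluorescence ratio is the summed Cy3 intensity of the target cycles divided by that of the buffer cycles, averaged per switch-domain sequence. Clusters outside 100-1000 RFU were left out.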
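Further: ATP exposure 15 min at 22 °C before imaging.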

| Sequence | switch fluorescence ratio |
| --- | --- |
| ATGTGGAATG | 0.994 ± 0.037 |
| ATGTGGAGAC | 0.9921 ± 0.005 |
| ATGTGGGTCT | 1.02 ± 0.056 |
| ATGTGGGTGT | 1.02 ± 0.013 |
| ATGTGGGTTG | 1.03 ± 0.022 |
| ATGTGGTGAC | 0.978 ± 0.039 |
| ATGTGGTTCC | 1.004 ± 0.0025 |
| ATGTGTATTT | 1.03 ± 0.023 |
| ATGTGTGGGG | 1.01 ± 0.063 |
| ATGTGTGTTG | 1.04 ± 0.046 |
| ATGTTAAAGG | 0.998 ± 0.016 |
| ATGTTAACGG | 1.01 ± 0.012 |
| ATGTTACATT | 1.01 ± 0.038 |
| ATGTTAGATT | 0.996 ± 0.029 |
| ATGTTAGCGT | 0.9941 ± 0.0048 |
| ATGTTAGTAC | 1.03 ± 0.058 |
| ATGTTATGG | 1.01 ± 0.011 |
| ATGTTATTA | 0.975 ± 0.021 |
| ATGTTATTGT | 0.98 ± 0.049 |
| ATGTTATTTA | 1.01 ± 0.025 |
| ATGTTCAGTT | 0.974 ± 0.012 |
| ATGTTGAACT | 0.99 ± 0.002 |
| ATGTTGAGCC | 0.9874 ± 0.0022 |
| ATGTTGGGTT | 0.982 ± 0.031 |
| ATGTTGTCTG | 1 ± 0.035 |

| Sequence | switch fluorescence ratio |
| --- | --- |
| ATGTTGTGGG | 1 ± 0.013 |
| ATGTTGTTAC | 1.01 ± 0.025 |
| ATGTTGTTGA | 0.998 ± 0.024 |
| ATGTTTAAGC | 1.05 ± 0.048 |
| ATGTTTCACA | 0.951 ± 0.011 |
| ATGTTTCTAT | 0.982 ± 0.027 |
| ATGTTTGATT | 0.999 ± 0.047 |
| ATGTTTGGCC | 1.04 ± 0.041 |
| ATGTTTGTAG | 0.979 ± 0.045 |
| ATGTTTTGAA | 0.9789 ± 0.005 |
| ATGTTTTGGG | 1.01 ± 0.024 |
| ATGTTTTTGG | 1.1 ± 0.22 |
| ATTAAAGGGT | 1.005 ± 0.0084 |
| ATTAAATAGA | 1.02 ± 0.014 |
| ATTAAATTGT | 0.9919 ± 0.0062 |
| ATTAACCATT | 1.01 ± 0.014 |
| ATTAACTAAA | 1.02 ± 0.017 |
| ATTAACTTTA | 1.01 ± 0.035 |
| ATTAAGCACC | 1.3 ± 0.079 |
| ATTAAGGCAA | 1.1 ± 0.014 |
| ATTAAGGCTA | 0.983 ± 0.036 |
| ATTAAGGGGC | 1.02 ± 0.017 |
| ATTAAGTTGA | 0.987 ± 0.041 |
| ATTAATGGCG | 0.9554 ± 0.009 |
| ATTAATTCGT | 0.996 ± 0.071 |

| Sequence | switch fluorescence ratio |
| --- | --- |
| ATTAATTTTC | 0.997 ± 0.039 |
| ATTACAAATT | 1.03 ± 0.05 |
| ATTACAGGGC | 1.03 ± 0.012 |
| ATTACCCTCG | 1.02 ± 0.035 |
| ATTACCTGTT | 1.03 ± 0.047 |
| ATTACGTACT | 1.77 ± 0.11 |
| ATTACTATGG | 1.02 ± 0.02 |
| ATTACTGTGT | 0.99 ± 0.02 |
| ATTACTTATC | 1.02 ± 0.018 |
| ATTAGAGGGG | 0.9862 ± 0.0067 |
| ATTAGAGGTT | 0.9898 ± 0.0094 |
| ATTAGAGTGT | 0.965 ± 0.04 |
| ATTAGGAAAT | 1.08 ± 0.1 |
| ATTAGGAATG | 1.01 ± 0.027 |
| ATTAGGAGAC | 1.005 ± 0.008 |
| ATTAGGGACT | 0.992 ± 0.035 |
| ATTAGGGGGC | 1.04 ± 0.061 |
| ATTAGGGTGG | 0.992 ± 0.018 |
| ATTAGGGTTT | 1.04 ± 0.061 |
| ATTAGGTCTA | 1 ± 0.014 |
| ATTAGTAGAT | 0.97 ± 0.013 |
| ATTAGTGGGG | 0.978 ± 0.013 |
| ATTAGTGGGT | 0.9826 ± 0.005 |
| ATTAGTTGTA | 1 ± 0.025 |
| ATTATAAGTG | 0.96 ± 0.016 |

| Sequence | switch fluorescence ratio |
| --- | --- |
| ATTATACGGG | 1.052 ± 0.007 |
| ATTATATGAC | 1.06 ± 0.05 |
| ATTATATGCG | 0.992 ± 0.0024 |
| ATTATATGGA | 0.956 ± 0.01 |
| ATTATATTTA | 1.02 ± 0.028 |
| ATTATCCCGG | 0.99 ± 0.041 |
| ATTATGAATC | 1.02 ± 0.078 |
| ATTATGGTTT | 1 ± 0.022 |
| ATTATGTAGA | 0.9958 ± 0.0091 |
| ATTATGTCAG | 0.991 ± 0.024 |
| ATTATGTGGC | 0.9803 ± 0.0086 |
| ATTATGTTTA | 1 ± 0.022 |
| ATTATTACGG | 1 ± 0.022 |
| ATTATTCACC | 1.01 ± 0.02 |
| ATTATTCGGA | 1.008 ± 0.0027 |
| ATTATTTTGG | 1.01 ± 0.018 |
| ATTCAAAAAT | 1.04 ± 0.016 |
| ATTCAATCCA | 0.989 ± 0.012 |
| ATTCACATCG | 1.01 ± 0.06 |
| ATTCATGGGA | 1.02 ± 0.031 |
| ATTCATTCGG | 0.992 ± 0.026 |
| ATTCATTTTC | 1.02 ± 0.015 |
| ATTCCAAGGT | 0.997 ± 0.029 |
| ATTCCAGAGG | 1.01 ± 0.02 |
| ATTCCCAGGG | 2.067 ± 0.017 |

| Sequence | switch fluorescence ratio |
| --- | --- |
| ATTCCGGGAG | 1.07 ± 0.064 |
| ATTCGATATA | 1.02 ± 0.014 |
| ATTCGATTTT | 0.999 ± 0.019 |
| ATTCGCAGCA | 1.22 ± 0.056 |
| ATTCGCGCTG | 0.994 ± 0.064 |
| ATTCGGACGG | 1.026 ± 0.0055 |
| ATTCGGCCTT | 1.01 ± 0.043 |
| ATTCGGGTTA | 0.99 ± 0.013 |
| ATTCGGTAA | 0.9962 ± 0.0072 |
| ATTCGTATTT | 0.987 ± 0.029 |
| ATTCGTGGG | 1.01 ± 0.017 |
| ATTCGTGGGA | 0.9892 ± 0.0074 |
| ATTCGTTAGA | 0.999 ± 0.011 |
| ATTCTCTTGT | 0.996 ± 0.014 |
| ATTCTGCTGG | 1.01 ± 0.013 |
| ATTCTGTTTT | 0.986 ± 0.028 |
| ATTCTTACCG | 1.09 ± 0.044 |
| ATTCTTGAGA | 0.988 ± 0.034 |
| ATTCTTGTTC | 0.981 ± 0.05 |
| ATTGAAAAGG | 0.96 ± 0.028 |
| ATTGAAGGAG | 0.994 ± 0.023 |
| ATTGAAGGCG | 1 ± 0.038 |
| ATTGAAGGGC | 0.9661 ± 0.0093 |
| ATTGAATTCG | 1 ± 0.011 |
| ATTGAATTTT | 0.9795 ± 0.0038 |

| Sequence | switch fluorescence ratio |
| --- | --- |
| ATTGATGCTT | 0.979 ± 0.018 |
| ATTGATGGCG | 0.982 ± 0.06 |
| ATTGATGTCC | 0.976 ± 0.0098 |
| ATTGATTCTT | 1.01 ± 0.051 |
| ATTGATTGAT | 1.02 ± 0.024 |
| ATTGATTTAG | 0.9756 ± 0.0095 |
| ATTGCAATGG | 1.6 ± 0.034 |
| ATTGCAGCTG | 0.9637 ± 0.0015 |
| ATTGCAGGGA | 0.993 ± 0.042 |
| ATTGCAGGTT | 0.965 ± 0.01 |
| ATTGCAGTTG | 0.954 ± 0.013 |
| ATTGCATGCA | 0.985 ± 0.026 |
| ATTGCCCACC | 1.026 ± 0.0086 |
| ATTGCCGGGA | 1.01 ± 0.0089 |
| ATTGCGACAC | 1.23 ± 0.035 |
| ATTGCGTGGT | 0.986 ± 0.024 |
| ATTGCTAAGC | 1.039 ± 0.0054 |
| ATTGCTACTT | 1.031 ± 0.0052 |
| ATTGCTCTGT | 1.04 ± 0.036 |
| ATTGCTTATT | 0.974 ± 0.018 |
| ATTGGACAGT | 1 ± 0.075 |
| ATTGGACTGG | 0.998 ± 0.057 |
| ATTGGAGGTT | 0.995 ± 0.013 |
| ATTGGCTAGT | 0.966 ± 0.02 |
| ATTGGGAAAA | 1.03 ± 0.019 |

| Sequence | switch fluorescence ratio |
| --- | --- |
| ATTGGGATGC | 1.04 ± 0.02 |
| ATTGGGCGCG | 0.995 ± 0.018 |
| ATTGGGGGAC | 0.98 ± 0.03 |
| ATTGGGGGAT | 1.02 ± 0.078 |
| ATTGGGGGCC | 0.967 ± 0.028 |
| ATTGGGGGTG | 1.04 ± 0.012 |
| ATTGGGGTGG | 0.935 ± 0.12 |
| ATTGGGGTGT | 1.01 ± 0.022 |
| ATTGGGTAGT | 0.9765 ± 0.0084 |
| ATTGGGTGTT | 1.02 ± 0.029 |
| ATTGGGTTCT | 0.991 ± 0.057 |
| ATTGGTTCCA | 1.03 ± 0.041 |
| ATTGGTTGTG | 0.988 ± 0.035 |
| ATTGTAATAG | 1.04 ± 0.05 |
| ATTGTAGAGT | 0.985 ± 0.026 |
| ATTGTAGTCT | 1.04 ± 0.06 |
| ATTGTATTTG | 1.01 ± 0.034 |
| ATTGTCTGAG | 1.01 ± 0.011 |
| ATTGTCTTTG | 0.982 ± 0.018 |
| ATTGTGACGA | 1.03 ± 0.027 |
| ATTGTGACTG | 0.975 ± 0.037 |
| ATTGTGCTTG | 1 ± 0.027 |
| ATTGTGGGCC | 0.975 ± 0.023 |
| ATTGTGGTCA | 0.999 ± 0.017 |
| ATTGTTACAG | 1.01 ± 0.016 |

| Sequence | switch fluorescence ratio |
| --- | --- |
| ATTGTTATTA | 1.028 ± 0.0035 |
| ATTGTTGGGG | 0.967 ± 0.025 |
| ATTGTTGTTC | 1.06 ± 0.057 |
| ATTGTTTACA | 0.969 ± 0.051 |
| ATTGTTTGGG | 1.03 ± 0.019 |
| ATTGTTTTGC | 1.009 ± 0.0025 |
| ATTTAAATCT | 1.02 ± 0.023 |
| ATTTAACGTC | 1.02 ± 0.08 |
| ATTTAACTTA | 1.008 ± 0.0016 |
| ATTTAAGAAG | 0.99 ± 0.032 |
| ATTTAAGGGG | 0.9949 ± 0.0092 |
| ATTTAAGGGT | 0.993 ± 0.032 |
| ATTTAATGGG | 0.99 ± 0.035 |
| ATTTACATCA | 1.02 ± 0.013 |
| ATTTAGCCGC | 1.02 ± 0.017 |
| ATTTAGCTTA | 1.0052 ± 0.00027 |
| ATTTAGTACT | 1.04 ± 0.021 |
| ATTTAGTCAG | 0.9737 ± 0.0053 |
| ATTTAGTTCT | 0.981 ± 0.027 |
| ATTTATGAGG | 1.01 ± 0.016 |
| ATTTATGCAG | 0.9992 ± 0.0035 |
| ATTTATGTGC | 1.01 ± 0.025 |
| ATTTATTGGC | 1.02 ± 0.042 |
| ATTTATTGGT | 1.007 ± 0.0062 |
| ATTTCAAATA | 1.01 ± 0.043 |
